For 10 substances, signal reduction results are on record in PMC8990068.

In this assay the target is Fc gamma receptor I (human) (UniProt P12314). Nature of the assay: AlphaScreen or HTRF; AlphaLISA human FCGR binding kit (PerkinElmer), competition: donor and acceptor beads coated with unmodified IgG and FcγR-I; serial dilutions of SPGR-engineered IgG in 1X HiBlock buffer (1 mg/ml to 0.1 μg/ml); 25 °C, 90 min; signal at 615 nm. (In general: Bead proximity is the source of the signal in Alpha formats.)
UniProt P12314, sequence (P12314 16-292): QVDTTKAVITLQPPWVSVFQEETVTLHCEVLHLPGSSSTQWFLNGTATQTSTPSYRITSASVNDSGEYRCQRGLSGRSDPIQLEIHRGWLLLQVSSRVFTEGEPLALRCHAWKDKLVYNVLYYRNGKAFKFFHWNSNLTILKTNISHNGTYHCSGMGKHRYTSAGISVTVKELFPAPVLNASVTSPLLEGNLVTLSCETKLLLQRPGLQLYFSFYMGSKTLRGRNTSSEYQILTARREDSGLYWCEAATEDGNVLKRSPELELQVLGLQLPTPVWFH

Regarding “SPGR-engineered human serum IgG, sample 10, bisecting sialylated glycans (FA2BG2S2 route) (antibody)”, the signal reduction at 0.1 μg/ml worked out at 60%. In the case of “SPGR-engineered human serum IgG, sample 3, bi-antennary glycans with terminal galactose (antibody)” it was 60%. The same measure for “SPGR-engineered human serum IgG, sample 9, bisecting glycans (after GnT-III and GalT) (antibody)”: 60%; for “SPGR-engineered human serum IgG, sample 6, mono-antennary glycans (after GnT-I and GalT) (antibody)”: 60%; for “SPGR-engineered human serum IgG, sample 8, bisecting glycans terminating with GlcNAc (antibody)”: 60%. The same measure for “SPGR-engineered human serum IgG, sample 1, (F)M3 glycans (terminating with mannose) (antibody)”: 60%; for “SPGR-engineered human serum IgG, sample 4, bi-antennary sialylated glycans (antibody)”: 60%. “SPGR-engineered human serum IgG, sample 5, mono-antennary glycans terminating with GlcNAc (antibody)” gave a signal reduction at 0.1 μg/ml of 60%.

“SPGR-engineered human serum IgG, sample 7, mono-antennary glycans (after GnT-I, GalT and SialylT) (antibody)”: the signal reduction at 0.1 μg/ml is 60%.

For the substance “SPGR-engineered human serum IgG, sample 2, bi-antennary (F)A2 glycans (terminating with GlcNAc) (antibody)”, the signal reduction at 0.1 μg/ml turned out to be 60%.
